Reference: patent US5780025A, “Compositions and methods for the synthesis and assay of enkephalinase” (Genentech, Inc., priority 1993, dated 1998)

T1: dansyl-Gly-Trp-Gly or dansyl-Gly-Tyr-Gly (Rattus norvegicus, UniProt P07861)
T1 construct: made in house; host or cells: human embryonic kidney (293) cells (pCISrENK); also rabbit reticulocyte lysate in vitro translation (prENKsense)
T1 sequence (P07861 1-750): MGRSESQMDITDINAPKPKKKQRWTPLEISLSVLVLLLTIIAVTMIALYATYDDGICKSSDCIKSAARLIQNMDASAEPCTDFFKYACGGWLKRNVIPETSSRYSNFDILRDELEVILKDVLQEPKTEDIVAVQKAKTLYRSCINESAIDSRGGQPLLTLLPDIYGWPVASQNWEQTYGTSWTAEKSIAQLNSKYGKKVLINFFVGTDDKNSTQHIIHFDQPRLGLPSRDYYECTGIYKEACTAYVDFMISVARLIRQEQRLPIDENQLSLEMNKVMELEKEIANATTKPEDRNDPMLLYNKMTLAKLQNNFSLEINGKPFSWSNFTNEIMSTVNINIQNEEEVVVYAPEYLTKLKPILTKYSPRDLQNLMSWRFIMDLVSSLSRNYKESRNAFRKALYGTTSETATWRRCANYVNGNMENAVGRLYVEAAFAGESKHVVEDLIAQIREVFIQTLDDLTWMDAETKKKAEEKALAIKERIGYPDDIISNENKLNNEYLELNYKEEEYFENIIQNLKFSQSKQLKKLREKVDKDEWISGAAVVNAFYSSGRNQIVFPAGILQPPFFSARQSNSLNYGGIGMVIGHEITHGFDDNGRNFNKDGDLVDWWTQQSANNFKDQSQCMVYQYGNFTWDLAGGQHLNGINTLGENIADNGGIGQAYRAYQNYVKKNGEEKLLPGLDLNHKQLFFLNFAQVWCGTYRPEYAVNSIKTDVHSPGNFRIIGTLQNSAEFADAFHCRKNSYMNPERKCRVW

T2: ^3 H-(DAla^2, Leu^5)enkephalin (Rattus norvegicus, UniProt P07861)
T2 construct: Rat kidney enkephalinase was purified to apparent homogeneity; from tissue; host or cells: rat kidney (male rats, membrane fraction, Triton X-100 solubilised)
T2 sequence (P07861 1-750): T1 sequence (P07861 1-750)

B1: prENKsense: in vitro transcription/translation product of plasmid prENKsense (full length rat enkephalinase cDNA), rabbit reticulocyte lysate (protein, UniProt P07861 1-750, looked up)
chain: T1 sequence (P07861 1-750)
modifications: full-length in vitro translated
notes: in vitro transcription/translation product of plasmid prENKsense (full length rat enkephalinase cDNA), rabbit reticulocyte lysate
B2: rat kidney enkephalinase: enkephalinase purified from rat kidney, fractions from the last Concanavalin-A step, about 90 Kdalton protein (protein, UniProt P07861 2-750, looked up)
Neprilysin: GRSESQMDITDINAPKPKKKQRWTPLEISLSVLVLLLTIIAVTMIALYATYDDGICKSSDCIKSAARLIQNMDASAEPCTDFFKYACGGWLKRNVIPETSSRYSNFDILRDELEVILKDVLQEPKTEDIVAVQKAKTLYRSCINESAIDSRGGQPLLTLLPDIYGWPVASQNWEQTYGTSWTAEKSIAQLNSKYGKKVLINFFVGTDDKNSTQHIIHFDQPRLGLPSRDYYECTGIYKEACTAYVDFMISVARLIRQEQRLPIDENQLSLEMNKVMELEKEIANATTKPEDRNDPMLLYNKMTLAKLQNNFSLEINGKPFSWSNFTNEIMSTVNINIQNEEEVVVYAPEYLTKLKPILTKYSPRDLQNLMSWRFIMDLVSSLSRNYKESRNAFRKALYGTTSETATWRRCANYVNGNMENAVGRLYVEAAFAGESKHVVEDLIAQIREVFIQTLDDLTWMDAETKKKAEEKALAIKERIGYPDDIISNENKLNNEYLELNYKEEEYFENIIQNLKFSQSKQLKKLREKVDKDEWISGAAVVNAFYSSGRNQIVFPAGILQPPFFSARQSNSLNYGGIGMVIGHEITHGFDDNGRNFNKDGDLVDWWTQQSANNFKDQSQCMVYQYGNFTWDLAGGQHLNGINTLGENIADNGGIGQAYRAYQNYVKKNGEEKLLPGLDLNHKQLFFLNFAQVWCGTYRPEYAVNSIKTDVHSPGNFRIIGTLQNSAEFADAFHCRKNSYMNPERKCRVW
B3: pCISrENK: rat enkephalinase expressed from plasmid pCISrENK in human embryonic kidney (293) cells and purified (protein, UniProt P07861 2-750, looked up)
Neprilysin: B2 Neprilysin
modifications: recombinant, expressed in 293 cells
notes: rat enkephalinase expressed from plasmid pCISrENK in human embryonic kidney (293) cells and purified
B4: Enkephalinase: Enkephalinase produced by the method of the instant invention, essentially pure (protein, UniProt P07861 2-750, looked up)
Neprilysin: B2 Neprilysin

Experiments:
[1] = target: T1, dansyl-Gly-Trp-Gly or dansyl-Gly-Tyr-Gly; test: Enkephalinase activity of expressed rat enkephalinase material; format: biochemical; details: rat enkephalinase cDNA expression products
Description: An assay using novel fluorescent substrates for enkephalinase was developed to assess whether enkephalinase is expressed. This assay is based on the disappearance of energy transfer between a tryptophan or a tyrosine residue and the 5-dimethylaminonaphthalene-1-sulfonyl group (dansyl) in the substrates dansyl-Gly-Trp-Gly or dansyl-Gly-Tyr-Gly upon hydrolysis of their Gly-Trp or Gly-Tyr amide bond by enkephalinase. No significant difference in Km or kcat values were found for dansyl-Gly-Trp-Gly and dansyl-Gly-Tyr-Gly as the active site of enkephalinase appears to accommodate tryptophan residues similarly to tyrosine. The tryptophan and tyrosine containing substrates can be used for continuous recording of enkephalinase activity. […]
Fluorescence measurements were made using a Perkin Elmer, model 650-10S spectrofluorometer, equipped with a temperature controlled cell-holder, maintained at 37° C. […] The 600 μl mixture was transferred into a quartz cuvette, and fluorescence measured. […] The fluorescence in the incubation media could thus be related to the amounts of hydrolyzed substrates. […] Ten μl of purified rat kidney enkephalinase was added and the increase in tryptophan or tyrosine fluorescence was continuously monitored (excitation=280 nm, emission=360 nm for tryptophan, excitation 277, emission 315 for tyrosine). […] Under these conditions, tryptophan fluorescence was stable for over 2 hr.

[2] = target: T2, ^3 H-(DAla^2, Leu^5)enkephalin; test: Assay of enkephalinase activity with tritiated enkephalin substrate (Llorens et al. 1982); format: biochemical
Description: As used herein, enkephalinase or enkephalinase derivatives refers to proteins which are enzymatically active or are immunologically cross-reactive with enzymatically active enkephalinase. Enzymatically functional enkephalinase is capable of cleaving the Gly^3 -Phe^4 amide bond of ^3 H-(DAla^2, Leu^5)enkephalin in an assay as described by Llorens et al. (1982).
"Essentially free from" or "essentially pure" when used to describe the state of enkephalinase produced by the invention means free of protein or other materials normally associated with enkephalinase in its in vivo physiological milieu as for example when enkephalinase is obtained from blood and/or tissues by extraction and purification.
Enkephalinase activity was measured as described by Llorens et al. (1982) using ^3 H-(DAla^2, Leu^5)enkephalin as a substrate. […]

Row | Molecule | enkephalinase activity of expressed material [1] | also measured
1 | B1 | did not have detectable activity | 
2 | B2 |  | enkephalinase activity, specific activity ([2]; six 1 ml fractions from the last Concanavalin-A step, measured at 25° C., ^3 H-(DAla^2, Leu^5)enkephalin as substrate): 27.4 nmole/mg protein/min
3 | B3 | biologically active | 
4 | B4 |  | specific activity ([2]; 20 nM ^3 H-(DAla^2, Leu^5)enkephalin as substrate, 25° C., 50 mM pH 7.4 HEPES buffer containing 0.02% Tween 20): at least 25 nmole/mg protein/min
